Patent US20230295310A1 (ABCELLERA BIOLOGICS, published 2023)

Target: human CD3 (human, UniProt P07766 23-207; P04234 22-171; P09693 23-182)
Assay: cell-based or functional assay

human CD3, sequence (P07766 23-207, chain 1 of 3): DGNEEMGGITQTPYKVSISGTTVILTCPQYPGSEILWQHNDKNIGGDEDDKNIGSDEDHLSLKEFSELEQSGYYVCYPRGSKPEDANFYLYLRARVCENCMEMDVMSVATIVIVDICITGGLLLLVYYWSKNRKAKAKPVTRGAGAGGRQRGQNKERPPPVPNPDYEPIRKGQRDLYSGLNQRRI
human CD3, sequence (P04234 22-171, chain 2 of 3): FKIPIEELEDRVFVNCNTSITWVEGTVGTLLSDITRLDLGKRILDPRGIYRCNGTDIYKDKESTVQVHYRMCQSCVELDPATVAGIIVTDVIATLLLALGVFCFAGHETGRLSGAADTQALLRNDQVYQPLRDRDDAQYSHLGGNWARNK
human CD3, sequence (P09693 23-182, chain 3 of 3): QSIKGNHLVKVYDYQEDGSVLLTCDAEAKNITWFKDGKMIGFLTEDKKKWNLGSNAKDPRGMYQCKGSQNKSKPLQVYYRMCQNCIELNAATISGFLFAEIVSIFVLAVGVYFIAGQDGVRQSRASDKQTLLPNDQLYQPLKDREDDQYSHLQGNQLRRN

Row | CD4 EC50 (nM); CD69/CD25 on human T cells, plate-coated antibody [nM] | CD8 EC50 (nM); CD69/CD25 on human T cells, plate-coated antibody [nM] | Binder
1 | 18.3 | 18.3 | mAb 53 (antibody, V domains shown) VH: QVQLVQSGAEVKKPGASVKVSCKASGYTFTSYDINWVRQATGQGLEWMGWMNPKSGKTGYAQKFQGRITMTRNTPISTVYMDLSSLRSEDTAVYYCAREGHYDFWTGYYSFDYWGQGTLVTVSS VL: DIQMTQSPSSLSASVGDRVTITCRASQGIRNDLGWYQQTPGKAPKRLIYAASSLQSGVPSRFSGSGSGTEFTLTISSLQPEDFATYYCLQHYSYPYTFGQGTKLEIK
2 | 8.54 | 8.91 | mAb 55 (antibody, V domains shown) VH: QVQLEQSGAEVKKPGASVKVSCKTSGYIFANYDINWVRQATGQGLEWMGWMNPKSGKAGYAQKFQGRVTMTSNTPINTAYMELSSLRSEDTAVYYCAREGHYDFWRGFYSFDYWGQGILVTVSS VL: DIQMTQSPSSLSASVGDRVTITCRASQGIRNDLGWYQQKPGKAPKRLIYTASSLQSGVPSRFSGSGSGTEFTLTISSLQPEDFATYFCLQYNTYPYTFGQGTKLEIK
3 | 22 | 21.3 | mAb 67 (antibody, V domains shown) VH: EVQLVESGGDLVQPGRSLRLSCAASGFTFDDCVIHWVRQAPGKGLEWVSGITWNSGRIGYADSVKGRFTISRDNAKNSLYLQMNSLRVEDTALYYCAKEGNYDFWSTYYRGYFDLWGRGTLVTVSS VL: DIQMTQSPSSLSASVGDRVTITCRASQGIRNDLGWYQQKPGIAPKRLIYAASSLQGGVPLRFSGSGSGTEFTLTISSLQPEDFATYYCLQHNSYPYTFGQGTKLEIK
4 | 6.38 | 6.37 | mAb 176 (antibody, V domains shown) VH: EVELVESGGGLVQPGRSLRLSCAASGFKFDDYTMHWVRLPPGKGLEWVSGISWNSGTIDYGDSVKGRFTISRDNAKNSLYLQMNSLRVEDTALYYCAKDTSGYGHYFYYYMDVWGKGTTVTVSS VL: DIQMTQSPSSLSASIGDRVSITCRTSQIINNYLNWYQQKPGKAPKVLIYSASSLQSGVPSRFSGSGSGTDFTLTINSLQPEDFATYYCQQSYNFPITFGQGTRLELK
5 | 19.5 | 19.4 | mAb 174 (antibody, V domains shown) VH: EVQLVESGGGLVQPGGSLRLSCAASGFTFSSNWMSWVRQAPGKGLEWVANIKQDGSEKYSVDSVKGRFTISRDNAKNSLYLQMNSLRAEDTAVYYCARDRSRNYYWYFDLWGRGTLVTVSS VL: not shown
6 | 21.6 | 21.2 | mAb 175 (antibody, V domains shown) VH: EVELVESGGGLVQPGGSLRLSCAASGFTFSSNWMSWVRQAPGKGLEWVANIKQDGSEKYYVDSVKGRFTISRDNAKNSLYLKMNSLRAEDTAVYYCARDCSSNWYWYFDLWGRGTLVTVSS VL: not shown
7 | 13.3 | 15.2 | mAb 54 (antibody, V domains shown) VH: EVQLEESGGGLVQPGGSLRLSCAASGFTFSRYSMNWVRQAPGKGLEWFSYISSSSRTIYYADSVKGRFTMSRDNAKNSLYLQMNSLRDEDTAVYFCARGDYYDSEGMDVWGKGTTVTVSS VL: DIQMTQSPSTLSASVGDRVTITCRASQTITTWLAWYQQKPGKAPKLLIYKASTLESGVPSRFSGSGSGTEFTLTISSLQPDDFATYHCQQYKTFSYTFGQGTKLDIK
8 | 14.6 | 15.1 | mAb 170 (antibody, V domains shown) VH: EVQLVESGGGLVRPGRSLRLSCAASGFTFDDYTMHWVRQAPGKGLEWVSGISWNSGSIGYADSVKGRFTISRDNAKNSLYLQMNSLRAEDTALYYCSKDSSGYGYYLNYSLDVWGKGTTVTVSS VL: not shown
9 | 12.6 | 12.6 | mAb 178 (antibody, V domains shown) VH: EVQLVESGGGLVQPGRSLRLSCAASGFTFDDYTMHWVRQAPGKGLEWVSDISWNSGTIGYADSVKGRFTISRDNAKNSLYLQMNSLRAEDTALYYCVKDSSGYGHYYKYYMDVWGKGTTVTVSS VL: DIQMTQSPSSLSASVGDRVTITCRASQSISNYLNWYQQKAGKVPKVLIYGSSSLQSGVPSRFSGSGSGTDFTLTISSLQPEDFASYYCQQTYSSPLTFGGGTKVDFK
10 | 10.4 | 9.87 | mAb 179 (antibody, V domains shown) VH: EVQLVESGGGLVQPGRSLRLSCAASGFTFDDYTMHWVRQTPGKGLEWVSDISWNSGSIGYADSVKGRFTISRDNAKNTLYLQMNSLRAEDTALYYCVKDSSGYGHYLYYYMDVWGKGTTVTVSS VL: DIQMTQSPSSLSASVGDRVTITCRASQSIRNYLNWYQQSPGRAPKLLIFSASSLQSGVPSRFSGSGSGTDFTLTISSLQPEDFVTYYCQQRYSTPITFGQGTRLEIK
11 | 6.86 | 6.71 | mAb 171 (antibody, V domains shown) VH: EVQLVESGGGLVQPGRSLRLSCAASGFTFADYTMHWVRQAPGQGLEWVSGISWNSGSIDYADSVKGRFIISRDNAKKTLYLQMNSLRAEDTALYYCAKDSSGYGHYYFYYLDVWGKGTTVTVSS VL: EIVMTQSPATLSVSPGERATLSCRASQSVSSNLAWYQQKPGQAPRLLIYSTSTRATGIPARFSGSRSGTEFTLTISSLQSEDSAVYYCQQYNNWPHFGQGTRLEIK
12 | 16.4 | 18.2 | mAb 72 (antibody, V domains shown) VH: EVQLVDSGGGLVQPGGSLRLSCAASGFTFSSYWMSWVRQAPGKGLEWVANIKQDGSEKYYVDSVKGRFTISRDNVKNSLSLEMNSLRAEDTALYYCARDESSSWYWYFDLWGRGTLVTVSS VL: DIQMTQSPSTLSASVGDRVTITCRASQSISKWLAWYQQKPGKAPKLLIYKASSLENGVPSRFSGSGSGTEFTLTISSLQPDDFATYYCQQYSSYSRTFGQGTKVEIK

The remaining lines, values behind:

Row | Binder | CD4 EC50 (nM); CD69/CD25 on human T cells, plate-coated antibody [nM] | CD8 EC50 (nM); CD69/CD25 on human T cells, plate-coated antibody [nM]
13 | mAb 169 (antibody, V domains shown) VH: EVQLVESGGGLVKTGGSLRLSCVASGFSFKKAWMNWVRQAPGKGLEWVGRIKRNTDGGTADYAAPVKGRFTLSRDDSKKTLFLQMNSLKTEDTAVYYCTTLDSSSYYVGYYYMDVWGKGTTVTVSS VL: DIQMTQSPSSVSASVGDRVIITCRASQDINNWLAWYQQKPGKAPKLLIYTASSLQSGVPSRFSGSGSGTDFILTIGSLQPEDFATYYCQQAHSLPITFGQGTRLEIK | 6.49 | 6.67
14 | mAb 71 (antibody, V domains shown) VH: QVQLVQSGAEVRKPGASVKVSCKASGYTFTKYDVNWVRQAPGQGLEWMGWMNSNNGNIGYAQKFQGRVTMTRKTSISTAYMELSSLRSEDTAVYYCAREGHYDFWRGFYNFDYWGQGTLVTVSS VL: DIQMTQSPSSLSASVGDRVTITCRASQDIKNDLGWYQQKPGKAPKRLIYAASSLQSGVPSRFSGSGSGTEFTLTISSLQPEDFATYYCLQHNFYPITFGQGTRLEIK | 19.3 | 19.2
15 | mAb 177 (antibody, V domains shown) VH: EVQLVESGGGLVQPGMSLRLSCAASGFTFDDYTMHWVRQSPGKGLEWVAGISWNSGTIGYGDSMKGRFTISRDNAKNSLDLQMNSLRVEDTALYYCAKDTSGYGHYYYYFMDVWGKGTTVTVSS VL: DIQMTQSPSSLSASIGDRVSITCRTSQIINNYLNWYQQKPGKAPKLLIYSASSLQSGVPSRFSGSGSGTDFTLTLSSLQPEDFATYFCQQSYNFPITFGQGTRLELK | 14.3 | 14.2
16 | mAb 172 (antibody, V domains shown) V domain 1: EVQLVESGGGLVQPGRSLRLSCTTSGFTFDDYTMHWVRQVPGKGLEWVSDISWNSGSVGYADSVKGRFTISRDNAKNSLYLQMNSLRAEDTALYYCVKDSSGYGHYFHYYMDVWGKGTTVTVSS V domain 2: EVQLVESGGGLVQPGRSLRLSCTTSGFTFDDYTMHWVRQVPGKGLEWVSDISWNSGSVGYADSVKGRFTISRDNAKNSLYLQMNSLRAEDTALYYCVKDSSGYGHYFHYYMDVWGKGTTVTVSS | 23.2 | 22.9
17 | mAb 180 (antibody, V domains shown) VH: EVNLVESGGGLVQPGRSLRLSCAASGFTFDDYTMHWVRQVPGKGLEWVSNISWNSGSLGYADSVKGRFTISRDNAKDSLYLQMNSLRVEDTALYYCAKDSSGYGHYNSYYMDVWGKGTTVTVSS VL: DIQMTQSPSSLSASVGDRVTITCRASQSIRNYLNWYQQKPGKAPKVLIYSASSLQSGVPSRFSGSGSGTDFTLTISSLQPEDFASFYCQQTYSTPITFGQGTRLEIK | 6.54 | 6.57
18 | mAb 173 (antibody, V domains shown) VH: EVQLVESGGGLVQPGRSLRLSCAASGFTFDDYTMHWVRQVPGKGLEWVSDISWNSGSVGYADSVKGRFTISRDNAKNSLYLQMNSLRAEDTALYYCVKDSSGYGHYFHYYMDVWGKGTTVTVSS VL: DIQMTQSPSSLSASVGDRVTITCRASQSISNYLNWYQVKPGKAPKVLIYAASSLQSGVPSRFSGSGSGTDFTLTISSLQPEDFVSYYCHQSYNTPITFGQGTRLEIK | 12.5 | 12.3
19 | mAb 68 (antibody, V domains shown) VH: EVQLVDSGGGLVQPGGSLRLSCSGSGFTFSSYWMSWVRQAPGKGLEWVANIKQDGSQKYYVDSVKGRFTISRDNVKNSLYLQMNSLRVEDTAVYYCARDESSSWYWYFDLWGRGTLVTVSS VL: DIQMTQSPSTLSASVGDRVTLTCRASQNIVKWLAWYQQKPGKAPKLLIYKASSLESGVPSWFSGSGSGTEFTLTINSLQPDDFATYYCQQYYTYSRTFGQGTKVEIK | 12.5 | 12.6
20 | mAb 66 (antibody, V domains shown) VH: QVQLVQSGAEVKKPGASVKVSCKASGYTVTGYYMHWVRQAPGQGLEWMGWINPNSGGTNFAQNFQGRVTMTRDTSISTFYMDLSRLRSDDTAVYYCARGGAPVSYWFFDLWGRGTLVTVSS VL: DIQMTQSPSSLSASVGDRVTITCRASQSISRYLNWYQQKPGKAPKVLIYNTSSLKSGVPSRFSGSGSGTDFTLTISSLQPEDFATLYCQQSHSTPFTFGPGTKVDIK | 13 | 13.2
